Data from patent publication US20030232781A1.

Molecular target: T1, CTCF (full-length) (UniProt P49711)
T1 sequence: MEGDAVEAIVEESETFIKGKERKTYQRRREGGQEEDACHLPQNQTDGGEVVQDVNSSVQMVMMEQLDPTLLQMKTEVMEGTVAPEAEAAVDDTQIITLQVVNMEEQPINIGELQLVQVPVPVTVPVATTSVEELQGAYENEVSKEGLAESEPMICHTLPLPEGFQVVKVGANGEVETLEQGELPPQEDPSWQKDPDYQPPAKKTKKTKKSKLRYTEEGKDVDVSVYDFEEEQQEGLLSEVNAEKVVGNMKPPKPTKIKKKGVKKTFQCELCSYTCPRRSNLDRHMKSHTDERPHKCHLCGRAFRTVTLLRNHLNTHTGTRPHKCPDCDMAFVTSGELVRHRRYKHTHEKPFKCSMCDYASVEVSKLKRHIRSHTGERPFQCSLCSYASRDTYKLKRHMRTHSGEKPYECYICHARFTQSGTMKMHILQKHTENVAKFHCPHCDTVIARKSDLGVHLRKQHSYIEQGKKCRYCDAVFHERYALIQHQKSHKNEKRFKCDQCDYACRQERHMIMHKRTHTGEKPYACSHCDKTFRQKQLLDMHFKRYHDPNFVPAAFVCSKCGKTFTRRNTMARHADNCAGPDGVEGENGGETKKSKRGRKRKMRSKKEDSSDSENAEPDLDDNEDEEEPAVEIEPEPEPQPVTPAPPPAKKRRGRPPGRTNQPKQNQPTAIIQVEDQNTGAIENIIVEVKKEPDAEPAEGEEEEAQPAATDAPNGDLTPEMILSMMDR
Assay: SPR
Details: 5mC at all CpG (SssI); at least 1000-fold lower than unmethylated; no stable complexes

Sequence | Ka [M⁻¹]
CGCGKGGTGGCAG (double strand) [DMD4 methylated] | 1e+08
CGCGKGGTGGCAG (double strand) [DMD7 methylated] | 1e+08
